Article PMC6358098

Target: recombinant protruding (P) domain of Macrobrachium rosenbergii nodavirus capsid protein (MrNV-CP) (Macrobrachium rosenbergii nodavirus)
Experiment: SEC; HiPrep 16/60 Sephacryl S-200 HR, Tris-HCl buffer (20 mM Tris-HCl, 100 mM NaCl, pH 7.6); elution profile overlaid with those of standard protein markers

“recombinant protruding (P) domain of Macrobrachium rosenbergii nodavirus capsid protein (MrNV-CP) (domain or fragment)” gave a stoichiometry N of 2.
